Test results: article PMC7160669 (Biochemistry, 2019)

B3: CpfC (protein)
chain: MTKKMGLLVMAYGTPYKESDIEPYYTDIRHGKRPSEEELQDLKDRYEFIGGLSPLAGTTDDQADALVSALNKAYADVEFKLYLGLKHISPFIEDAVEQMHNDGITEAITVVLAPHYSSFSVGSYDKRADEEAAKYGIQLTHVKHYYEQPKFIEYWTNKVNETLAQIPEEEHKDTVLVVSAHSLPKGLIEKNNDPYPQELEHTALLIKEQSNIEHIAIGWQSEGNTGTPWLGPDVQDLTRDLYEKHQYKNFIYTPVGFVCEHLEVLYDNDYECKVVCDDIGANYYRPKMPNTHPLFIGAIIDEIKSIF

Assays:
[1] = biological target: T1, ChdC (SaChdC; coproheme decarboxylase) (Staphylococcus aureus, UniProt A6QEP0); experiment: tryptophan fluorescence quenching; type: binding; settings: 50 mM Tris pH 8, 150 mM NaCl, 25 °C; Langmuir-Hill fit
T1 sequence (A6QEP0 1-250): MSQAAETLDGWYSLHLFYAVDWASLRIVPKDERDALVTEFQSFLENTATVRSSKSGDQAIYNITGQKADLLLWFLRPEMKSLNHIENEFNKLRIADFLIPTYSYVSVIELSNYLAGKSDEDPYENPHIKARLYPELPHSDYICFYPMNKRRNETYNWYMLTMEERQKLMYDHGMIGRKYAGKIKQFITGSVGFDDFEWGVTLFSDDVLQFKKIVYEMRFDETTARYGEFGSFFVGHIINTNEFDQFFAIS

[2] = biological target: T2, CpfC (coproporphyrin ferrochelatase; HemH) (Staphylococcus aureus, UniProt P64125); experiment: tryptophan fluorescence quenching; type: binding; settings: 50 mM Tris pH 8, 150 mM NaCl, 25 °C
T2 sequence (P64125 1-307): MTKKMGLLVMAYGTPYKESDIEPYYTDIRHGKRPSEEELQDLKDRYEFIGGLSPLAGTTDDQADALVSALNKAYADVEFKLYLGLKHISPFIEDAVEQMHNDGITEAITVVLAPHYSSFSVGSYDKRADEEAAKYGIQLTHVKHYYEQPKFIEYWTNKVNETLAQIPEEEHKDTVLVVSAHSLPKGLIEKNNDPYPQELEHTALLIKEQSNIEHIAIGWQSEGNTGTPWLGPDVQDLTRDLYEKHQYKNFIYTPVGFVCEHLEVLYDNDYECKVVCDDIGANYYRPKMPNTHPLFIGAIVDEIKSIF

CpfC = biological target: B3; experiment: UV-vis titration
ChdC [3] = biological target: T3, ChdC (Staphylococcus aureus, UniProt Q2FJ56); experiment: UV-vis titration
T3 chain: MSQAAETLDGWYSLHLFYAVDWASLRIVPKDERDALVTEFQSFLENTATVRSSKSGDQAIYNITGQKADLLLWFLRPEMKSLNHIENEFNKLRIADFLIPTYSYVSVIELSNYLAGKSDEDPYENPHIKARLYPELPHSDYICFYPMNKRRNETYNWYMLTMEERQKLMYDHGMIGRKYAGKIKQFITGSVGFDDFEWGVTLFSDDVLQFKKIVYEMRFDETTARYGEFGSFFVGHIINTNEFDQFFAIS

ChdC [4] = biological target: T3, ChdC; experiment: UV-vis titration and fluorescence quenching

## CC1=C(CCC(=O)O)c2cc3nc(cc4[nH]c(cc5[nH]c(cc1n2)c(C)c5CCC(=O)O)c(CCC(=O)O)c4C)C(CCC(=O)O)=C3C [coproporphyrin]
[1]
  KD: ChdC binds coproporphyrin with an affinity that resembles that for coproheme
[2]
  KD: affinities of CpfC and/or ChdC for coproporphyrin and/or coproheme were measured titrimetrically

B1: ChdC (protein)
chain: MSQAAETLDGWYSLHLFYAVDWASLRIVPKDERDALVTEFQSFLENTATVRSSKSGDQAIYNITGQKADLLLWFLRPEMKSLNHIENEFNKLRIADFLIPTYSYVSVIELSNYLAGKSDEDPYENPHIKARLYPELPHSDYICFYPMNKRRNETYNWYMLTMEERQKLMYDHGMIGRKYAGKIKQFITGSVGFDDFEWGVTLFSDDVLQFKKIVYEMRFDETTARYGEFGSFFVGHIINTNEFDQFFAIS
modifications: coproporphyrin III bound to ChdC
CpfC
  Kd: 40 µM

B2: CpfC (protein)
chain: MTKKMGLLVMAYGTPYKESDIEPYYTDIRHGKRPSEEELQDLKDRYEFIGGLSPLAGTTDDQADALVSALNKAYADVEFKLYLGLKHISPFIEDAVEQMHNDGITEAITVVLAPHYSSFSVGSYDKRADEEAAKYGIQLTHVKHYYEQPKFIEYWTNKVNETLAQIPEEEHKDTVLVVSAHSLPKGLIEKNNDPYPQELEHTALLIKEQSNIEHIAIGWQSEGNTGTPWLGPDVQDLTRDLYEKHQYKNFIYTPVGFVCEHLEVLYDNDYECKVVCDDIGANYYRPKMPNTHPLFIGAIIDEIKSIF
modifications: coproporphyrin III bound to CpfC
ChdC [3]
  Kd: 80 µM

## B3
ChdC [4]
  Kd: 17 µM
